Source: the DeepSol protein solubility set

Assay: soluble on expression in E. coli; label from the status in PepcDB or PDB records
In the case of “ELLVVTGMSGAGKSLVIQSLEDMGFFCVDNLPPVLLPKFVELMAQGNPSLQKVAIAIDLRGKELFKSLVKEIDIIKSRNDVILDVMFLEAKTEKIISRYKESRRAHPLNEQGQRSLIDAINEEREHLSEIRSIANYVIDTTKLKPKELKQRISKFYLDENFETFTINVTSFGFKHGIQMDADLVFDVRFLPNPYYVEELRPFTGLDEPVYNYVMKWKETQIFFDKLTDLLKFMIPGYKKEGKSQLVIAIGCTGGQHRSVALAKRLAEYLNEIFEYNVYVHHRDAHIE”, the “soluble on expression in E. coli” value is reported as “not soluble”.
For “ENKDNKGQIKTLDRDGQSITSYSFFAKNGDNVEKINVEVDQRQLSKDESLKLMENSRNKLVKLVLDKNKSANHIDKPLNLIREIPDTDISVTWDISDSRVLNYDGQIMSDVSQEGTIVNLTANMELNELTLSYTFAVNVFPRNYKGDIQEAVQEYINSQDSEQKKIFLPENISGEKISYYKSASK”, the “soluble on expression in E. coli” value was “soluble”.
For “ENQYVMKLANSLFVQNGFHVNEEFLQMLKMYFNAEVNHVDFSQNVAVANSINKWVENYTNSLLKDLVSPEDFDGVTNLALINAVYFKGNWKSQFRPENTRTFSFTKDDESEVQIPMMYQQGEFYYGEFSDGSNEAGGIYQVLEIPYEGDEISMMLALSRQEVPLATLEPLLKAQLIEEWANSVKKQKVEVYLPRFTVEQEIDLKDILKALGVTEIFIKDANLTAMSDKKELFLSKAVHKSCIEVNEEGSEAAAASGMIAIS”, the “soluble on expression in E. coli” value was “soluble”.
For “ENRLVVIVLRGAMDGLDLVRPVGDPLFATYRPRLAQDGQKGEGGVIPLSEGFVLHPLLNGLSALWRKGELGFVHAVSTPYRDKRSHFDGQDMLEAGTGPDVPPGVARDGWLNRMLQAVPGLEAETAWAIGRDPLPLMEGEAPVRVWSPDLALDLSAQNRRLLEELYHEDPLFRDVGTEALELAAKLSHGAGGEGPRDAKKDLAAIDELAAFAASQLRGAARIAAFSLSGWDTHRNQAAAIRKPLLKLQRMLLQLQAELGPVWDRTAILAMTEFGRTARENGSAGTDHGTAGAMIMAGGAIRGGRVLGRWPGLDEAALYDRRDLMPTSDVRAWAAWTMRSLYGFDRELLERSVFPGIEMREDPGLVL”, the “soluble on expression in E. coli” value was “not soluble”.
For “EPGSSEGLGLLNVHTVLTGSKQLTKTEAVLNLNNQKAKVKGYEIHVGRSQVLDEQPLELDNGECDGAISECGQIMGTYLHGFFDEAEALNLITEWVNGTQVKQQDFEVLKEQGINRIADAIEQHMNLDFLFK”, the “soluble on expression in E. coli” value was “not soluble”.
For “ERVVINISGLRFETQLKTLAQFPETLLGDPKKRMRYFDPLRNEYFFDRNRPSFDAILYYYQSGGRLRRPVNVPLDIFSEEIRFYELGEEAMEMFREDEG”, the “soluble on expression in E. coli” value was “soluble”.
For “ESICLIGHSLGGDLARYFASEFEEVKKLILLDGGYLDLDKILPLDTELEETKNYIKSQIVSDLDVLTSKEKSEAKHWSENMEKAVRQSYHWNVEYNRYELAINYENIEAILRLRRKIQAFKREVGDTLFISPRYPNEATWREEALKELPDYFDTIFLENFGHELYTQAPKEIASLMNEWLAYFL”, the “soluble on expression in E. coli” value was “not soluble”.
In the case of “ESPEIQVEEQSFNFGLIPEEKGSVGHSFKFRNSGTAPLLITRVMADCGCTTPTWPEEAIAPGEEAEIRVLFDPVGRSGAFVKRIRVFSNAQSSPLE”, the “soluble on expression in E. coli” value is reported as “not soluble”.
For “ESTTVKMYEALPTGPGKEVGTVVISEAPGGLHFKVNMEKLTPGYHGFHVHENPSCAPGEKDGKIVPALAAGGHYDPGNTHHHLGPEGDGHMGDLPRLSANADGKVSETVVAPHLKKLAEIKQRSLMVHVGGDNYSDKPEPLGGGGARFACGVIE”, the “soluble on expression in E. coli” value was “soluble”.
In the case of “ETDCRWDGCSQEFDSQEQLVHHINSEHIHGERKEFVCHWGGCSRELRPFKAQYMLVVHMRRHTGEKPHKCTFEGCRKSYSRLENLKTHLRSHTGEKPYMCEHEGCSKAFSNASDRAKHQNRTHSNEKPYVCKLPGCTKRYTDPSSLRKHVKTVHG”, the “soluble on expression in E. coli” value is reported as “soluble”.
For “ETDETLGEREIRRVLARSGEEGNIDASEVDMIERVFDLDDTVVREVMVPRPDVVSVPADATMSDIRAVVLDEGHTRYPVVDADDSDQIVGFIDVKDVLRAGEEGNENTTAGDIAHEIPVVPETTAINDLLLQFRQDRRQMAAVIDEWGSLEGIATIEDVVEAVVGDLRDEFDVDGREHAIRKQSDGSYDADGGV”, the “soluble on expression in E. coli” value was “not soluble”.
With “EVKLQESGGDLVQPGGSLKLSCAASGFTFSSYTMSWVRQTPEKRLEWVASINNGGGRTYYPDTVKGRFTISRDNAKNTLYLQMSSLKSEDTAMYYCVRHEYYYAMDYWGQGTTVTVSSAWRHPQFGG” the “soluble on expression in E. coli” value was “soluble”.
For “EVVVVGYQEVRRRDLTGSVAKANMADVLTAPVASFDQALGGRIAGVNVTSGEGMPGGNMSIVIRGNNSLTQENSPLFVIDGFPIEDSSAASTLNPSDIESLDFLKDASATAIYGARGANGVVIITTKKGK”, the “soluble on expression in E. coli” value was “not soluble”.
For “FCGRARVHTDFTPSPYDTDSLKLKKGDIIDIISKPPMGTWMGLLNNKVGTFKFIYVDVLS”, the “soluble on expression in E. coli” value was “soluble”.
In the case of “FDKVKVSTNFTYTLNQNKIVSLANGAINPETGEAIEMEYYSKGTLGTSGGPTLRLYENGSMGDIYINQRLRQSPNGYIWKDPSNGSLAIENTEYRKVGSILPKYYLGWNGSVAWKGWNLGFAFTGRFGGLVVSDTQAMIDKYGVSESSAVARQAGGVWVGDSKVDAEEYYSKVTTAVGTYYTYSATNIRLSELSLSYQLPKTWFKNHVNMTLGLTGKNLWMIYCKAPYDPESTSSVTSNFYQGVDYFQQPSLRSLGFNVKLTF”, the “soluble on expression in E. coli” value is reported as “not soluble”.
With “FGSLTVFAGDSPYAPPAGGEAIGRLMERAMHDGLVAGGIVLVGNRHGTIYEHVFGKQSSLPDSPPVTSSTIFDIASLTKVIATTPAVMRLAEEGRLSLVDPLVRWFPEFAGHGKDDVLVVHLLTHTSGLDDFSLSSADPLQSAISGVAAQKLKGEPGNRFRYADINFILLGELVRRVTGSTLDRYAADAFLRPLGMKDTAFLPGPAIAERCAATLDGSGGPHFGTVQDPLARLLGGVAGHAGLFGTASDLALFCRMILGEGELNGRRVLEERTVRQMTAPYFSRGGKVTRGLGWDMASPFSSPRGEGFSEESFGHTGYSGGSIWIDPRTDTYVIFLS” the “soluble on expression in E. coli” value was “not soluble”.
With “FINQKKVEESELIENKTYGVLITKAGNYHKFESNQLLKSTTDFKSESDTIIFAQTIANTDQIFIVTSLGNIINIPVYKLAFNSKNKLASLVSKKPILLEYETIVFVGTMN” the “soluble on expression in E. coli” value was “not soluble”.
With “FISRFAPDQPRKGADILVEALERQGVETVFAYPGGASMEIHQALTRSSSIRNVLPRHEQGGVFAAEGYARSSGKPGICIATSGPGATNLVSGLADALLDSVPLVAITGQVPRRMIGTDAFQETPIVEVTRSITKHNYLVMDVEDIPRIIEEAFFLATSGRPGPVLVDVPKDIQQQLAIPNWEQAMRLPGYMSRMPKPPEDSHLEQIVRLISESKKPVLYVGGGCLNSSDELGRFVELTGIPVATTLMGLGSYPCDDELSLHMLGMHGTVYANYAVEHSDLLLAFGVRFDDRVTGKLEAFASRAKIVHIDIDSAEIGKNKTPHVSVCGDVKLALQGMNKVLENRAEELKLDFGVWRNELNVQKQKFPLSFKTFGEAIPPQYAIKVLDELTDGKAIISTGVGQHQMWAAQFYNYKKPRQWLSSGGLGAMGFGLPAAIGASVANPDAIVVDIDGDGSFIMNVQELATIRVENLPVKVLLLNNQHLGMVMQWEDRFYKANRAHTFLGDPAQEDEIFPNMLLFAAACGIPAARVTKKADLREAIQTMLDTPGPYLLDVICPHQEHVLPMIPSGGTFNDVITEGDGRIKY” the “soluble on expression in E. coli” value was “soluble”.
For “FLDDINEDALPNDRTGYQDTLIWNKLFNYQKDAATGIINKLESYNGCILADSVGLGKTFTALAVIKYYELRNKSVLVLCPKKLADNWLNYSRNLKTNIFARDRFNYDVLCHTDLSRTSGESFGTPLNRINWGNYDLVIIDESHNFRNNDAYKDKETRYQKLMNKVIKEGVKTKVLMLSATPVNNRFNDLRNQLALAYEGDS”, the “soluble on expression in E. coli” value was “not soluble”.
With “FMQDFEDIQKDIEQLDIKCAHEQMNIQKQYDEKKKPLFEKRDEIIQKIPGFWANTLRKHPALSDIVPEDIDILNHLVKLDLKDNMDNNGSYKITFIFGEKAKEFMEPLTLVKHVTFDNNQEKVVECTRIKWKEGKNPIAAVTHNRSDLDNEIPKWSIFEWFTTDELQDKPDVGELIRREIWHNPLSYYLGLEE” the “soluble on expression in E. coli” value was “soluble”.
For “FPSKARMFEGLIEFIEESLMSRINRIFDEEKDTLNRIRLVMQLLLAFAERNPGLTRILSGHALMFENERLRDRINQLFERIETSLRQILRERKLREGKSFPVDENILAAQLLGQVEGSLNRFVRSDFKYLPTANFDEYWALLSAQIK”, the “soluble on expression in E. coli” value was “not soluble”.
For “FRELTEREEAVRESHQRISTILESITDAFFSLDHSWRFTYLNGEAERLLGRTRDDLLGKSIWEEFAAAVGTRFDVEYRRAVASGTTATFEEYYPPLACWFEVHAYPSRDGLSVFFQDIT”, the “soluble on expression in E. coli” value was “not soluble”.
In the case of “FTPVTKAAVINTFDGVADYLIRYKRLPNDYITKSQASALGWVASKGDLAEVAPGKSIGGDVFSNREGRLPSAGSRTWREADINYVSGFRNADRLVYSSDWLIYKTTDHYATFTRIR”, the “soluble on expression in E. coli” value is reported as “soluble”.
In the case of “GAFGWEQDRGAPFSGRSPRILTRMTDAPRPTAGADAPARPPAAPLVAPNFITEIIERDLEAGKYPRVVTRFPPDPSGYAHLGHVFASLLDFNTARQYGGQFNLRMDDTNPELARQEYVDSIADDLKWLGLDWGEHFYYASDYFDRYYAYAEQLIRQGDAYVESVSPEELSRLRGNATTPGTPSPYRDRSVEENLDLLRRMKAGEFADGEHVLRAKIDLTAPNMKLRDPVLYRIVNKPHFRTSDEWHIYPAYDFEHPLQDAIEGVTHSMCSLEFVDNRAIYDWLMEKLNFDPRPHQYEFGRRGLEYTITSKRKLRELVQAGRVSGWDDPRMPTLRAQRRLGVTPEAVRAFAAQIGVSRTNRTVDIAVYENAVRDDLNHRAPRVMAVLDPVKVTLTNLDGEKTLSLPYWPHDVVRDSPDGLVGMPGGGRVAPEEAVRDVPLTRELYIERDDFSPAPPKGFKRLTPGGTVRLRGAGIIRADDFGTDEAGQVTHIRATLLGEDAKAAGVIHWVSAERALPAEFRLYDRLFRVPHPEGENADVEDDSAGPAEHEAEPGAGQETAPVSQGFMRYLTPDSLRVLRGYVEPSVAGDPADTRYQFERQGYFWRDPVELERVDSREDALVFGRIITLKDTWGKQGGGTQQKAEGKKRPSTKGRGPDEVRGEGSSSPAKAHAPKAQPLTPEQDAEFTRLLGLGASEGDARTIARDPALLAFVGGAAPGDTFAQVASWTVNELVAGLRAGEVKVRAADLAPLAEGVASGQLSARIAREALARAAASGDAPLTIIEREGLNAGLSAEALQQVVAQVIAANPDKAEAYRGGKTALLGFFTGQVMRATAGKADPQALAAALKDALA”, the “soluble on expression in E. coli” value is reported as “soluble”.
In the case of “GAKESEQKVTIDSAKHEKHTKDKEENNSANTVFFDKINDLLVASVKEFEGTVGISYLDLETGEQRSVNGQHEFYTASTIKVPLTMLVADTVASGQKKWTDLIPYNAEEDYEEGTGIIAYNIQPEYPLKTLQEYAITYSDNIAKNMLYDTLGGDAKAKREMYQRYLHKTPSIEEPQFSSEDALVILQKLYTEKATKPDYQAIYDSMKQSVFHERMETPTTQGKVAHKIGSYDEFIHDMGILETPHPFALAIFTKGPDNAKSAAFIASVTDKLWQLQVSEYPNQ”, the “soluble on expression in E. coli” value is reported as “soluble”.
For “GAMDAEGLALLLPPVTLAALVDSWLREDCPGLNYAALVSGAGPSQAALWAKSPGVLAGQPFFDAIFTQLNCQVSWFLPEGSKLVPVARVAEVRGPAHCLLLGERVALNTLARCSGIASAAAAAVEAARGAGWTGHVAGTRKTTPGFRLVEKYGLLVGGAASHRYDLGGLVMVKDNHVVAAGGVEKAVRAARQAADFALKVEVECSSLQEAVQAAEAGADLVLLDNFKPEELHPTATVLKAQFPSVAVEASGGITLDNLPQFCGPHIDVISMGMLTQAAPALDFSLKLFAKEVAPVPKIH”, the “soluble on expression in E. coli” value was “soluble”.
